This series is described as follows: soluble fraction after stress (log2 fold change); higher = more stays soluble; pooled small domains, quantitative proteomics. The following applies: stress: 50 degC. The procedure, abridged: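 Pooled custom libraries of small protein domains were each held under stress at 50°C. The read-out, high-throughput quantitative proteomics, tracked how much of each protein stayed soluble. This is reported as a base-two log fold change used to indicate aggregation propensity. Higher values mean more protein remains in solution.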
With “HMANKTISMTTLKLVIQQLSKGISRQSISAQYHISRNTIKKYEKRIKAMDMKIEDILKLSDEEISNLLQ”, the “soluble fraction (log2)” value is -1.68.

As for “HMANLNFDMSQIVASRYQEKAAELGVTAPSLARTDYNTQEQATYEFVAREIIADYYDDRVAPFNDLIPE”, the “soluble fraction (log2)” value was -0.223. Turning to “HMANNPISMIKIRQILRLHIQGRSKLQIAAQTGISRNTLKKYLKEFEASKLTYDEISELSDKDLEDLFIK”, the “soluble fraction (log2)” value was -2.02. Consider “HMANTSAVIKQPGLVKLFAQHFVRNGFNAMKAAEAAGFVRPSPTFVRNLADSKPVKDAISELLGPYNDA”, for which the “soluble fraction (log2)” value was -0.0131. On to “HMANWRVGQTINALVSDRMPSGGLLLTVGRQSFVTTRDIPVQPGARIMLEVQQVEPKLVLRLVSA”, for which the “soluble fraction (log2)” value is -1.17.

For “HMAPADLSPEERVVLDALALEPVHVDALAAKLGRRSEELLTSLTLMEMRGLAVAHAGSRYSRATMT”, the “soluble fraction (log2)” value was determined as 0.0694.

As for “HMAPEEIPLDRVVRLVEQGRVESIVVTGERLEVTLQNGTVYGSTKENGVGFMETLDRYQVPLEQRDFSYEV”, the “soluble fraction (log2)” value was -0.0708. Take “HMAPELRSDAQMRRLWALAKENGLDEVGFRAFISDATGREVESTKSLTATEAHRLIEELEAP”: the “soluble fraction (log2)” value was -0.388. The value for “HMAPEPFIVQITASSLNVRKGPGTSYAVAQTVSKGQVFTIVQQQGGWGKLKSGAGWISLKYTAR” was -1.36; that for “HMAPEQWYVLTSGQLPKGPYRLRHIVAMSKGDNWLVARKGAEQWTPLRHLPEFRQAQEANEYIQAIS” was -0.968; that for “HMAPFSGVEPREWDSLVERGRQSGEVHAEDVTHVLRHVELTGDVLTDVQSKMAEHGITIDDA” was 0.206. “HMAPGASEVPDLTSLPAREALLRLTKLGLLPEMEGTGRLVRQQPAAGTRVPKGSKVHLVFEPG”: the “soluble fraction (log2)” value amounted to 0.0613. For the sequence “HMAPIEVPYNVFRQQVVEGNVESVATRADTVQGYFETPVTLPARPDAAAAEPVTVERFSTTLPSF”, the “soluble fraction (log2)” value is 0.142. The value for “HMAPKRIVLRFGKDISDKPIIYYLVKDYDLVINILKANVNPNKEGTLVLELSGENYDKGIEFLISQGVTVQ” was -1.56; that for “HMAPKVHLLKVPVDKIREIIGTGGKVIRQITEETGAKIDISDDGSVKVSSPDQSSIDAATTWITGIIAE” was 0.0652.

“HMAPLATLEAGEDGSVKLPNLAGHSIREVAAALGGAKLSLIPIGSGTSWKQTPAPGAVLHSGDTVTVYF”: the “soluble fraction (log2)” value was 0.142.

For “HMAPNDELTRQVISVLSGTPQQAFNYKQISKKLNINDSSERRMVSNILRELAGKGEIVEVYQGKYRSKAPA”, the “soluble fraction (log2)” value stood at 0.0588.

For “HMAPPTAEFFAHLPAEALSAVRRSVEEGNARGIDEAILRVETLDGEAGRVLRGLAARYEYGRILELTQR”, the “soluble fraction (log2)” value was determined as 0.117. As for “HMAPQSAAAILRYLSSGAIRGVGPATAQRIVERFGTDSLEIIQNRPKELAAINGISINKALSISEEYAKQY”, the “soluble fraction (log2)” value is -0.831.

“HMAPREELIAIHEALDKLEREDPQVSQLVKLRYFVGMTMAEAADAMDLKKRAAEALWTYGKAWLHREIKKN”: the “soluble fraction (log2)” value was -2.85.

Turning to “HMAPRIVTIQIPVDKIRDVIGPGGKVIRSIIERTGVKIDVEDDGRVNVASADGDSAQRAIAIIQELTAT”, the “soluble fraction (log2)” value worked out at 0.0444.

As to “HMAPSIPSGADIRAAREAAGINLRDFARIVDGPGIAIWSRYETGTPIRVKSISPEVWQKVRDFISQHG”, the “soluble fraction (log2)” value was -0.826.

“HMAPTADSVPFVIRSVVGGAQPFIVLEDGSKLLVGGVYRKYRLVAVENTRIIFEGPRTAIVT”: the “soluble fraction (log2)” value was -1.33. Regarding “HMAPTPAGNLRSLKSEIVNYTRQSSTAYVYTFKDLSSGELYTARASRYYAAAGDTAYISTAAGAITDM”, the “soluble fraction (log2)” value worked out at 0.0171.

With “HMAPTVPEVVRLEEGAARSAIEAAGLSVGSVEFRASSDPAGTVLATRPIAGRKVRPSSAVDLVLSDGRTP”, the “soluble fraction (log2)” value turned out to be 0.0905.

Consider “HMAPVEEWAKASVMEDPTLVTETMARIFAQQGQIGKARKAYRHLALTYPAKSTYFAAQLKKLNQR”, for which the “soluble fraction (log2)” value is -0.259. Regarding “HMAPVLTATVNTTSGKLNMRAAASATSAKLTSIPRGATVTVLEKGTTWSRISYGGYTGYVMTQYLKFD”, the “soluble fraction (log2)” value was -0.167.

With “HMAPVVELEDVTIVRGKATLLDRVNWVIDETDRWVIVGPNGAGKTTLLQVVSANLHPTSGKAMILDEVL”, the “soluble fraction (log2)” value was determined as 0.023.

Values taken from the domain aggregation screens of Martell et al. (2025).
